The text below walks through data of the nanobody polyreactivity screen of Harvey et al. (2022).

This series can be described thus: yeast display, Sf9 membrane polyspecificity reagent, FACS + sequencing; frameworks hold sequencing errors. An outline of the steps: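 Galactose induction of a Saccharomyces cerevisiae BJ5465 synthetic nanobody display library ran 36–48 hours. The cells were then stained for 1 hour at 4 °C with 10% biotinylated, detergent-solubilized Sf9 membrane reagent, pulled down on streptavidin microbeads and FACS-sorted into low and high (top ~1%) gates on expression and reagent-binding fluorescence. Labels for polyreactivity follow the gate of origin.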
On to “QVQLVESGGGLVQAGGSLRLICAASGLTFDTYSMGWYRQAPGKERELVAAISIGGRTNYADSVKGRFTISRDNAKNTVYLQMNSLKPEDTAVYYCARVFRYNSYYLPYDYWGQGTQVTVSS”, for which the “polyreactivity (PSR sort gate)” value is “high polyreactivity”.
Regarding “QVQLVESGGGLVQAGGSLRLICAASGLTFFSYAMGWYRQATGKEREFVAAITRRGGRTYYADSVKGRFTISRENANNTVYLQMNSLKPEDTAVYYCNAVPVLISVYRMEYWGQGTQVNVSS”, the “polyreactivity (PSR sort gate)” value is reported as “high polyreactivity”.
In the case of “QVQLVESGGGLVQAGGSLRLICAASGLTFLYYTMVWYRQEPGNERELVAAITSGASTNYADSVKGRFTISRDNAKNTVYLQMNSLIPEDTAVYYCAARYVGPFAWYSGYDYWGQGTQVTVSS”, the “polyreactivity (PSR sort gate)” value was “low polyreactivity”.
With “QVQLVESGGGLVQAGGSLRLICAASGLTFVHNAMGWYRQAPGKERELVAAISSSGGRTYYADSVKARFTISRDNAKNTVYLQMNSLKPEDTAVYYCNKAAFNYYLYGYWGQGTQVTVSS” the entry was “high polyreactivity”.
Turning to “QVQLVESGGGLVQAGGSLRLICAASGLTFVPNAMGWYRQAPGKERELVAGITSAGSTYYADSVKGRFTISRDNAKNTVYLQMNSLKPEDTAVYYCAKQFYRGFRYGYWGQGTQVTVSS”, the “polyreactivity (PSR sort gate)” value is “high polyreactivity”.
For the sequence “QVQLVESGGGLVQAGGSLRLICAASGNSYIYNAMGSYRQAPGKEMELVAAISSRGGTTSDAVSVKGRFTISRDHAKNTVYFQMNSLKPEDTAVYYCAARQVVPSYRYPYGYWGQGTQVTVSS”, the “polyreactivity (PSR sort gate)” value is on record as “high polyreactivity”.
With “QVQLVESGGGLVQAGGSLRLICAASGNTFVRYYMGWYRQAPGKEREFVAAITASGGSTFADSVKGRFTISRDNAKNTVYLQMNSLKPEDTAVYYCNAGNSSTGVDRYDYWGQGTQVSVSS” the entry was “low polyreactivity”; with “QVQLVESGGGLVQAGGSLRLICAASGNTLIVNAMGWYRQAPGKERELVAAITRDGRTNYADSVKGRFTISRDNAKNTVYLQMNSLKPEDTAVYYCAARLAQSTGYGYWGQGTQVTVSS”, “low polyreactivity”; with “QVQLVESGGGLVQAGGSLRLICAASGRIFFTYAMGWYIQAPGKERQLVASITGSGGSTYYADSVKGRFTISRDNAKNTVYLQMNSLKPEDTAVYYCAAALFRRQLYRKFYYWGQGTQVTVSS”, “low polyreactivity”.
The entry for “QVQLVESGGGLVQAGGSLRLICAASGRIFGLNAMGWYRQAPGKEREFVAAITWRGGRTYYADSVKGRFTISRDNAKNTVYLQMNSLKPEDTAVYYCAADGGSTLDYYWGQGTQVTVSS” is “low polyreactivity”.
For the sequence “QVQLVESGGGLVQAGGSLRLICAASGRIFGRNAMGWYRQAPGKERELVAVITWRGGSTYYADSVKGRFTISRDNAKNTVYLQMNSLKPEDTAVYYCAADTSRYYLPRYRTDYWGQGTQVTVSS”, the “polyreactivity (PSR sort gate)” value is “high polyreactivity”.
Take “QVQLVESGGGLVQAGGSLRLICAASGRIFRANAMGWYRQAPGQERELVATITISGGSTYYADSVKGRFTISRDNAKNTVYLQMNCLKPEDTAVYYCNAGHTLTFVPRPAYYSMYYWGQGTQVTVSS”: the “polyreactivity (PSR sort gate)” value is reported as “low polyreactivity”.
As to “QVQLVESGGGLVQAGGSLRLICAASGRIFTSNAMGWYRQAPGKERELVAAISKSGGSTYYADSVKGRFTISRDNAKNTVYLQMNSLKPEDTAVYYCAAVPWRGFDYWGQGTQVTVSS”, the “polyreactivity (PSR sort gate)” value is “high polyreactivity”.
Consider “QVQLVESGGGLVQAGGSLRLICAASGRIFVKYAIGWYRQAPGKERELVASITSGGRTNYADSVKGRFTISPDIAKNTVYLQMNSLKPEDTAVYYCAAVWRTASTQYYYWGQGTQVTVSS”, for which the “polyreactivity (PSR sort gate)” value is “high polyreactivity”.
With “QVQLVESGGGLVQAGGSLRLICAASGRIFYINAMGWYRQAPGKERELVASITGSGGRTYYADSVKGRFTISRDNAKNTVYLQMNSLKPEDTAVYYCNADLYVGYLYYLYDYWGQGTQVTVSS” the entry was “low polyreactivity”.
In the case of “QVQLVESGGGLVQAGGSLRLICAASGRIFYRNAMGWYRQAPGKERELVAAISGATSTYYADSVKGRFTFSRDNAKNTVYLQMNSLKREDTAVYYCAAKIIWYTIRHGSAGFNYWGQGTQVTVSS”, the “polyreactivity (PSR sort gate)” value is “high polyreactivity”.
Turning to “QVQLVESGGGLVQAGGSLRLICAASGRIFYSYAMGWYRQAPGKERELVAAITVSGGSTFYADSVKGRFTISRDNAKNTVYLQMNSLKPEDTAVYYCAATRFSQYDWGQGTQVTVSS”, the “polyreactivity (PSR sort gate)” value is listed as “high polyreactivity”.
Turning to “QVQLVESGGGLVQAGGSLRLICAASGRIIYCNGMGWYRQAPGKERELVAAISSGGSTYYADSVKGRFTISRDNAKNTVYLQMNCLKPEDTAVYYCAADIDYESDRYDYWGQGTQVTVSS”, the “polyreactivity (PSR sort gate)” value was “low polyreactivity”.
For the sequence “QVQLVESGGGLVQAGGSLRLICAASGRILYKNSMGWYRQAPAKEMQLVAAISSTAGYTYYADSLKGRFTISRDNAKNTVYLQMNSLKPEDTAVYYCAARRSGVKRRYDYWGQGTQVTVSS”, the “polyreactivity (PSR sort gate)” value was “low polyreactivity”.
The entry for “QVQLVESGGGLVQAGGSLRLICAASGRISLSNAMGWYRHAPGKEREFVAAITKRSDRTYYADSVKGRFTISRDNAKNTVYLQMNSLKPEETAVYYCAAKPLFGTRDDYWGQGTQVTVSS” is “low polyreactivity”; for “QVQLVESGGGLVQAGGSLRLICAASGRNCVYYAMGWYRQAPGKERELVAAITSGDSTYYADSVKGRFTISRDNAKNTVYLQMNSLKPEDTAVYYCAADHYYGSESGGFVIYYYWGQGTQVTVSS” it is “low polyreactivity”; for “QVQLVESGGGLVQAGGSLRLICAASGRTFAGNAMGWYRQAPGKERELVAAITWSGGSTYYADSVKGRFTISRDNAKNTVYLQMNSLKPEDTAVYYCAADSQPPHELYESIEHESWGQGTQVTVSS” it is “low polyreactivity”.
As for “QVQLVESGGGLVQAGGSLRLICAASGRTFATYAMGWYRQAPGKERELVAAISNSGGRTNYADSVKGRFTISRDNAKNTVYLLMNSLKPEDTAVFYCATKAYTSGRYYWGQGTQVTVSS”, the “polyreactivity (PSR sort gate)” value was “high polyreactivity”.
Take “QVQLVESGGGLVQAGGSLRLICAASGRTFGPYAMGWYRQAPGKEREFVAAITWRGGRTNYADSVKGRFTISRDNAKNTVYLQMNSLKPEDTAVYYCNAVISPHQWIRGGDSWGQGTQVTVSS”: the “polyreactivity (PSR sort gate)” value is reported as “low polyreactivity”.
Turning to “QVQLVESGGGLVQAGGSLRLICAASGRTFGYNAMGWYRQAPGKEREFVAAISWSGGRTYYADSVKGRFTISRDNAKNTVYLQMNSLKPEHSAVYYCAAGFGDGPGNGYYTRYSWDDDYWGQGTQVTVSS”, the “polyreactivity (PSR sort gate)” value is on record as “low polyreactivity”.
On to “QVQLVESGGGLVQAGGSLRLICAASGRTFKYYAMGWYRQAPGKERELVATITWSGTSTNYADSVKRRFTISRDIGKNSVYLQMNSLKPEDSAVYYCAARSKRRNYDYWGQGTQVTVSS”, for which the “polyreactivity (PSR sort gate)” value is recorded as “high polyreactivity”.
Regarding “QVQLVESGGGLVQAGGSLRLICAASGRTFNSNVMGRSRQAPGKERELVAAISGSSGSTRYADSVKGRFTISRDNAKNTVYLQMNSLKPEDTEVYYCAAYPLYRRRWTGDYWGQGTQVTVSS”, the “polyreactivity (PSR sort gate)” value is on record as “high polyreactivity”.
“QVQLVESGGGLVQAGGSLRLICAASGRTFRYNAMGWYSQPHRKERELFAAINGGGSTYYADTVKGRFTISRDNAKNTVFLQMKSLKPEDTAVYYCAAANWRRNDYRYRFDYWGQGTQVTVSS”: the “polyreactivity (PSR sort gate)” value is listed as “high polyreactivity”.
With “QVQLVESGGGLVQAGGSLRLICAASGRTFWNYAMGWYRQAPGKERELVAVISFSDGSTYYADSVKGRFTISRDNAKNTVYLQMNSLKPEDTAVYYGAAKGPRRWGSGFDYWGQGTQVTVSS” the entry was “low polyreactivity”; with “QVQLVESGGGLVQAGGSLRLICAASGRTFYSYAMGWYRQAPGKERELVAAISSGGTTYYADSVKGRFTISRDNAKNTDYLQMNSLKPEDTAVYYCATSRAWRYRSYYWGQGTQVTVSS”, “high polyreactivity”; with “QVQLVESGGGLVQAGGSLRLICAASGRTFYYYAMGWDRQAPGKERELVASISYSAGRTYADSVKGRFTISRDNAKNTVYLLMNSLKPEDTAVYYCAAALYVNPYNYGTARWYYYWGQGTQVTVSS”, “high polyreactivity”.
For the sequence “QVQLVESGGGLVQAGGSLRLICAASGRTLSGYAMGWYRQAPGKERELVAAISSDGRTYYADSVKGRFTISRDNAKNTVYLQMNSLKPEDTAVYYCAKVRRGSYGYWGQGTQVTVSS”, the “polyreactivity (PSR sort gate)” value is recorded as “high polyreactivity”.
Turning to “QVQLVESGGGLVQAGGSLRLICAASGRTSVVNAMGWYRQAPGKERELVAAITSGGSTHYADSVKGRFTISRDNAKNTVYLQITSLKPEDTAGYYFNARDRRRTNLLDYWGQATQVTVSS”, the “polyreactivity (PSR sort gate)” value is “low polyreactivity”.
For “QVQLVESGGGLVQAGGSLRLICAASGSIFAGNAMGWYRQAPGKERELVADITSGDSTYYADSVKGRFTISRDNAKNTVYLQMNSLKPEDTAVYYCAADSWDSQVVSYEYWGQGTQVTVSS”, the “polyreactivity (PSR sort gate)” value is on record as “low polyreactivity”.
Consider “QVQLVESGGGLVQAGGSLRLICAASGSIFAVNAMGWYRQAPGKERELVAAISRRGGSTYYADSVKGRFTISRDNAKITDYLQMNSLKPEDTAVYYCAKRWKATRARYDYWGQGTQVTVAS”, for which the “polyreactivity (PSR sort gate)” value is “high polyreactivity”.
Regarding “QVQLVESGGGLVQAGGSLRLICAASGSIFDVNAMGWYRQAPWKERELVAAISDSGGSTYYADSVKGRFTISRDNAKITVYLQMNSLKPEDTAVYYCNAVWSWYNYDDFDYWGQGTQVTVSS”, the “polyreactivity (PSR sort gate)” value is reported as “low polyreactivity”.
With “QVQLVESGGGLVQAGGSLRLICAASGSIFDWYDMGWYRQAPGKERELVAAITTGGITNYADSVKGRFTFSRDNAKNSVYLQMNSLKPEDTAVYYCNADFSVEFDYWGQGTQVNVSS”, the “polyreactivity (PSR sort gate)” value is “low polyreactivity”.
For the sequence “QVQLVESGGGLVQAGGSLRLICAASGSIFGGYAMGWYIQAPGKERELVARITNGGSTYYADSVKGRFTISRDNAKNTVYLQMNSLKPEDTAVYYCNADWYAYPYGYWGQGTQVTVST”, the “polyreactivity (PSR sort gate)” value is listed as “low polyreactivity”.
Turning to “QVQLVESGGGLVQAGGSLRLICAASGSIFGNYVMGWYRQAPGKEMELVAGISTRGGSTYYADSVKGRFTISRDNAKNTVYLQMNCLKPEDTAVYYCAAVPASYRYPMYYWGQGTQVTVSS”, the “polyreactivity (PSR sort gate)” value is recorded as “low polyreactivity”.
Take “QVQLVESGGGLVQAGGSLRLICAASGSIFGRYAMGWYRQAPGKERELVAAITGSGGTTYYADSVKGRFTISRDNAKNTVYLQMNSLKPEDTAVYYCAADPQVYYSGRPRYDYWGQGTQVTVSS”: the “polyreactivity (PSR sort gate)” value is recorded as “high polyreactivity”.
With “QVQLVESGGGLVQAGGSLRLICAASGSIFGRYSMGWYRQAPGKERELVAAINYSGGRTYYADSVKGRVTISRDNAKNTVYLQMNSLKPEDTAVYYCAAAQFPDRNYNYWGQGTQVTVSS” the entry was “high polyreactivity”.
